By Kd is commonly meant the equilibrium constant for the complex coming apart. Higher therefore signals a looser complex.

The chains are these.
B1: AMACO P2 (domain or fragment)
chain: SSSALCTTADPDCRVEPHPCERRTLETVRELAGNALCWRGSRQADTVLALPCPFYSWKRVFQTHPANCYRTICPGPCDSQPCQNGGTCIPEGVDRYHCLCPLAFGGEVNCAPKLSLECRIDVLFLLDSSAGTTLGGFRRAKAFVKRFVQAVLREDSRARVGIASYGRNLMVAVPVGEYQHVPDLIRSLDSIPFSGGPTLTGSALLQVAEHGFGSASRTGQDRPRRVVVLLTESRSQDEVSGPAAHARARELLLLGVGSEILQAELVKITGSPKHVMVHTDPQDLFSQIPELQRRL
modifications: two unusual glycan chains
B2: Fras1 CSPG (domain or fragment)
chain: TPSLHVNGSLTLGIGSMKPLDFSLLNIQHQDGRVEDLLFHVVSTPTNGQLLLSRNGKEVQLEKAGHFSWKDVNEKKVRFVHSKEKLRKGYFSLKISDQQFFSEPQLINIQAFSTQAPYVLRNEVLHVSKGERATITTQLLDIRDDDNPQDVVVNVLDPPLHGQLLQMPPAPAASIYQFHLDELSRGLLLYAHDGSDSTSDIIVFQANDGHSFQNILFHVKNIPKNDRALRLVTNSMVWVPEGGMLKITNRILKAQAPGVRADDIIYKITHSRPQFGEVVLLMNLPADSPAGPAEEGHHLPDGRMATPISTFTQQDIDDGVVWYRHLGAPTQSDSFRFQVSSATSAQEHLESHMFNIAILPQAPEAPKLSLGTSLHMTAREDGLSVIQPQSLSFVKAESPSGKIIYNITVPLHPNQGIIEHRDRPHSPIQYFTQEDINQGQIMYRPPVAPPHLQEIMAFSFAGLPESVKFYFTVSDGQHTSPEMALTIHLLHSDLQPPAFQVKAPLLEVSPGGRTSLGLQLLVRDAQVVPEELFFQLQKSPQHGMLVKYTAKSSVTMAAGDTFTYDEVERNVLQYVHDGSSAWEDSLEISVTDGLTVTTSEVKVEVSPSENRGPRLAPGSSLSMTVASQHTAIITRSHLAYVDDSSSDPEIWIRLSSLPLYGVLFRSSGPDMDELSGDSNFTMEDINKKNIRYSAVFETDGHSVTDGFHFSVSDMDGNHVDNQVFTITVTPAENPPHIIAFADLITVDEGGRAPLSLHHFFATEDQDNLQDDAVIKLSALPKYGCIENTGTGDRFGPGANSELEASFPIQDVLENYIYYFQSVHESIEPTHDVFSFYVSDGSGRSEIHSINITIERKNDEPPRMTLRPLGVRLSSGVAISNSSLSLQDLDTPDNELIFVLMKKPDHGHLLRRSTASDPLENGTVLDQGSSFTYQDVLAGLVGYLPGDIYMAVDEFRFSLTDGLHVDTGRMEIYIELPSTNIPHLAINRGLQLSAGSVARITEQHLKATDTDSEAGQVVYIMKEDPGAGRLLMAKADNLEQISVRGPIRSFTQADVSQGQIEYSHGPGEPGGSFAFKFDVVDGEGNKLADQSFSIGVLEDKSPPVVITNRGLVLDENSVEKITTAQLSATDQDSKPTELIYRITTQPQLGHLEHVASPGIQISSFTQADLASRNVQYVRSSGTGKQSDAFSFVLSDGLHEVTQTFPITIHPVDDARPLVQNRGMRVQEGVRKTITEFELKAVDVDTEAESITFTIVQPPRHGTIERTARGQRFHQTSSFTMEDIYQNRVSYSHDGSNSLKDRFTFTVSDGTNPFFIIEEGGEEIMTAAPQQFHVDILPVDDGTPRIVTNLGLQWLEYMDGKATNLITKKELLTVDPDTEDSQLIYEVTTGPMHGYLENKLQPGRAAATFTQEHVNLGLIRYVLYEEKIQKVMDSFQFLVKDSKPNV

The experiment “Fras1 CSPG” deals with B2. Nature of the experiment: SPR. Background: SPR reads the build-up and loss of mass on a sensor chip optically.
The target of the experiment “AMACO P2” is B1. Kind of experiment: SPR.

In turn, B1 registered a Kd with Fras1 CSPG of 151 nM. That is a sub-micromolar value.

In turn, B2 displayed a Kd in the experiment with AMACO P2 of 42 nM. In other words, the double-digit nanomolar range.

Values taken from publication PMC4361737 (The Journal of investigative dermatology, 2013).
